Assay results from patent US20210238281A1 (INSTITUT NATIONAL DE LA SANTE ET DE LA RECHERCHE MEDICALE …, published 2021).
Values belong to the binder of their own block, whether it stands above or below them.

Legend:
Test in all cases: ELISA, IgG aggregated with anti-IgG F(ab')2-HRP on coated FcγR
[1] = target: T1, murine FcγRI (murine, UniProt P26151 25-297)
T1 construct: also called FcγRIA; CD64
T1 sequence (looked up): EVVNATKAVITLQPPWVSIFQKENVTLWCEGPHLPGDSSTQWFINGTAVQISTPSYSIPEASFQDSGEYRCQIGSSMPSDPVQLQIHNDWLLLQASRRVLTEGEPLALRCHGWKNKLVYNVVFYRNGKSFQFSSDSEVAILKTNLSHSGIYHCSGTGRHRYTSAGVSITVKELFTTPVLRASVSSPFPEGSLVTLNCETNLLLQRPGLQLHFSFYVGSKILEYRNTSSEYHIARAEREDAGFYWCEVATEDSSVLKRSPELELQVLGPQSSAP
Method: (§1) The binding of the 8-18C5-WT and 8-18C5-Del antibodies to human or murine FcγRs was measured by ELISA after incubation, with the F(ab′)2 of goat anti-human IgG HRP for 2 h at room temperature (at a final concentration of 0.5 μg/ml for each molecule) with gentle stirring. The IgGs aggregated to the F(ab′)2 were then incubated with gentle agitation for 1 h at 30° C. on the Maxisorp or NiNTA immunoplates previously coated with the FcγR and saturated with PBS-BSA 4%.

[2] = target: T2, murine FcγRIII (murine, UniProt P08508 31-215)
T2 sequence (looked up): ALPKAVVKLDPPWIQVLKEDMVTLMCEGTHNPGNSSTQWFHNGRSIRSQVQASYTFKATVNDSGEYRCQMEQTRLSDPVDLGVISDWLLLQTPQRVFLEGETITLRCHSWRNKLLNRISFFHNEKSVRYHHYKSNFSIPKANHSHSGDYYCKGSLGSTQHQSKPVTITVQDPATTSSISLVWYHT
Method: as §1

[3] = target: T3, murine FcγRIIB (murine, UniProt P08101 30-207, limits assumed)
T3 sequence (looked up): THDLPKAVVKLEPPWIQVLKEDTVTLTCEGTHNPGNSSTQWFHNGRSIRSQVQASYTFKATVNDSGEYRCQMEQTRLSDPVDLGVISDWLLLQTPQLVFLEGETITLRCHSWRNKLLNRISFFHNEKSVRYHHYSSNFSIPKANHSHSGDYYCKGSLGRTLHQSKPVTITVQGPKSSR
Method: as §1

[4] = target: T4, murine FcγRIV (murine, UniProt A0A0B4J1G0 21-203)
T4 sequence: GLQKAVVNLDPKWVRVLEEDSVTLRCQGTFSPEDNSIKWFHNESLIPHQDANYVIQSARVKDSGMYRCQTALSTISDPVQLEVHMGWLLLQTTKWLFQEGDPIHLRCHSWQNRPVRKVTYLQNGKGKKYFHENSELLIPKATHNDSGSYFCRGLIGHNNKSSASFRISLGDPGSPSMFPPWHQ
Method: as §1

- binding result [1]: no binding (tested: 0.5 µg/ml)
- binding result [2]: binds
- binding result [3]: binds
- binding result [4]: no binding (tested: 0.5 µg/ml)
B1: recombinant murine monoclonal antibody 8-18C5 (8-18C5-WT) (antibody, mouse IgG1, kappa)
heavy: EVKLHESGAGLVKPGASVEISCKATGYTFSSFWIEWVKQRPGHGLEWIGEILPGRGRTNYNEKFKGKATFTAETSSNTAYMQLSSLTSEDSAVYYCATGNTMVNMPYWGQGTTVTVSSAKTTPPSVYPLAPGSAAQTNSMVTLGCLVKGYFPEPVTVTWNSGSLSSGVHTFPAVLESDLYTLSSSVTVPSSPRPSETVTCNVAHPASSTKVDKKIVPRDCGCKPCICTVPEVSSVFIFPPKPKDVLTITLTPKVTCVVVDISKDDPEVQFSWFVDDVEVHTAQTQPREEQFNSTFRSVSELPIMHQDWLNGKEFKCRVNSAAFPAPIEKTISKTKGRPKAPQVYTIPPPKEQMAKDKVSLTCMITDFFPEDITVEWQWNGQPAENYKNTQPIMNTNGSYFVYSKLNVQKSNWEAGNTFTCSVLHEGLHNHHTEKSLSHSPGK
light: DIELTQSPSSLAVSAGEKVTMSCKSSQSLLNSGNQKNYLAWYQQKPGLPPKLLIYGASTRESGVPDRFTGSGSGTDFTLTISSVQAEDLAVYYCQNDHSYPLTFGAGTKLEIKRADAAPTVSIFPPSSEQLTSGGASVVCFLNNFYPKDINVKWKIDGSERQNGVLNSWTDQDSKDSTYSMSSTLTLTKDEYERHNSYTCEATHKTSTSPIVKSFNRNEC
notes: Murine IgG1 (consensus IGHG1*01 constant domain) produced in HEK or YB2/0 cells; also called mAb 8-18C5; YB2

- binding result [1]: no binding (tested: 0.5 µg/ml)
- binding result [2]: no binding (tested: 0.5 µg/ml)
- binding result [3]: no binding (tested: 0.5 µg/ml)
- binding result [4]: no binding (tested: 0.5 µg/ml)
B2: 8-18C5-Del variant of the recombinant murine antibody 8-18C5 (antibody, mouse IgG1, kappa)
heavy: EVKLHESGAGLVKPGASVEISCKATGYTFSSFWIEWVKQRPGHGLEWIGEILPGRGRTNYNEKFKGKATFTAETSSNTAYMQLSSLTSEDSAVYYCATGNTMVNMPYWGQGTTVTVSSAKTTPPSVYPLAPGSAAQTNSMVTLGCLVKGYFPEPVTVTWNSGSLSSGVHTFPAVLESDLYTLSSSVTVPSSPRPSETVTCNVAHPASSTKVDKKIVPRDCGCKPCICTVPEVSSVFIFPPKPKDVLTITLTPKVTCVVVDISKDDPEVQFSWFVDDVEVHTAQTQPREQFNSTFRSVSELPIMHQDWLNGKEFKCRVNSAAFPAPIEKTISKTKGRPKAPQVYTIPPPKEQMAKDKVSLTCMITDFFPEDITVEWQWNGQPAENYKNTQPIMNTNGSYFVYSKLNVQKSNWEAGNTFTCSVLHEGLHNHHTEKSLSHSPGK
light: B1 light
modifications: Fc N-glycan highly sialylated (antibody produced in YB2/0 cells); the letters do not carry it.
notes: Murine IgG1, produced in YB2/0 cells; also called m8-18C5-Del
